# Experimental data as given in patent US20110287512.
# Tests used:
# [1] = tested on: ZFP8196 linker TGYSIPRPKP center linker F2-F3 TGEKP replaced by TGYSIPRPKP (artificial); test: ELONA; conditions: normalized ELISA score
# [2] = tested on: ZFP8196 linker TETTRPFRPPKP center linker F2-F3 TGEKP replaced by TETTRPFRPPKP (artificial); test: ELONA; conditions: normalized ELISA score
# [3] = tested on: ZFP8196 linker TSPRLPAPKP center linker F2-F3 TGEKP replaced by TSPRLPAPKP (artificial); test: ELONA; conditions: normalized ELISA score
# [4] = tested on: ZFP8196 linker 2e center linker F2-F3 TGEKP replaced by TPGGKSSRTDRNKP (artificial); test: ELONA
# [5] = tested on: ZFP8196 linker TEPRAKPPKP center linker F2-F3 TGEKP replaced by TEPRAKPPKP (artificial); test: ELONA; conditions: normalized ELISA score
# [6] = tested on: ZFP8196 linker TVSPAPCRSKP center linker F2-F3 TGEKP replaced by TVSPAPCRSKP (artificial); test: ELONA; conditions: normalized ELISA score
# [7] = tested on: ZFP8196 linker TPDRPISTCKP center linker F2-F3 TGEKP replaced by TPDRPISTCKP (artificial); test: ELONA; conditions: normalized ELISA score
# [8] = tested on: ZFP8196 linker TGGGGSGGSQKP (flexible) center linker F2-F3 TGEKP replaced by TGGGGSGGSQKP (artificial); test: ELONA
# [9] = tested on: ZFP8196 linker 2f center linker F2-F3 TGEKP replaced by TPNPHRRTDPSHKP (artificial); test: ELONA
# [10] = tested on: ZFP8196 (host, center linker TGEKP) (artificial); test: ELONA
# [11] = tested on: ZFP8196 linker TPSHTPRPKP center linker F2-F3 TGEKP replaced by TPSHTPRPKP (artificial); test: ELONA; conditions: normalized ELISA score
# [12] = tested on: ZFP8196 linker TSSPRSNAKP center linker F2-F3 TGEKP replaced by TSSPRSNAKP (artificial); test: ELONA; conditions: normalized ELISA score
# [13] = tested on: ZFP8196 linker LRQKDERP center linker F2-F3 TGEKP replaced by LRQKDERP (artificial); test: ELONA; conditions: normalized ELISA score
# [14] = tested on: ZFP8196 linker TNTTRPYRPPKP center linker F2-F3 TGEKP replaced by TNTTRPYRPPKP (artificial); test: ELONA; conditions: normalized ELISA score
# [15] = tested on: ZFP8196 linker TGSLRPYRRPKP center linker F2-F3 TGEKP replaced by TGSLRPYRRPKP (artificial); test: ELONA; conditions: normalized ELISA score
# [16] = tested on: ZFP8196 linker TGGGGSQKP center linker F2-F3 TGEKP replaced by TGGGGSQKP (artificial); test: ELONA; conditions: normalized ELISA score
# [17] = tested on: ZFP8196 linker TPGLHRPKP center linker F2-F3 TGEKP replaced by TPGLHRPKP (artificial); test: ELONA; conditions: normalized ELISA score
# [18] = tested on: ZFP8196 linker TASCPRPFRPPKP center linker F2-F3 TGEKP replaced by TASCPRPFRPPKP (artificial); test: ELONA; conditions: normalized ELISA score
# [19] = tested on: ZFP8196 linker 1f center linker F2-F3 TGEKP replaced by TYPRPIAAKP (artificial); test: ELONA; conditions: normalized ELISA score
# [20] = tested on: ZFP8196 linker LRQKDGGGSERP (Kim, Pabo) center linker F2-F3 TGEKP replaced by LRQKDGGGSERP (artificial); test: ELONA
# [21] = tested on: ZFP8196 linker TCPRPPTRKP center linker F2-F3 TGEKP replaced by TCPRPPTRKP (artificial); test: ELONA; conditions: normalized ELISA score
# [22] = tested on: ZFP8196 linker 1d center linker F2-F3 TGEKP replaced by TPNRRPAPKP (artificial); test: ELONA; conditions: normalized ELISA score
# [23] = tested on: ZFP8196 linker TPDAPKPKP center linker F2-F3 TGEKP replaced by TPDAPKPKP (artificial); test: ELONA; conditions: normalized ELISA score
# [24] = tested on: ZFP8196 linker 1c center linker F2-F3 TGEKP replaced by THPRAPIPKP (artificial); test: ELONA; conditions: normalized ELISA score
# [25] = tested on: ZFP8196 linker TSINRPFRRPKP center linker F2-F3 TGEKP replaced by TSINRPFRRPKP (artificial); test: ELONA; conditions: normalized ELISA score
# [26] = tested on: ZFP8196 linker TGEARPYRPPKP center linker F2-F3 TGEKP replaced by TGEARPYRPPKP (artificial); test: ELONA; conditions: normalized ELISA score
# [27] = tested on: ZFP8196 linker 2d center linker F2-F3 TGEKP replaced by TLAPRPYRPPKP (artificial); test: ELONA
# [28] = tested on: ZFP8196 linker TGEGGKP center linker F2-F3 TGEKP replaced by TGEGGKP (artificial); test: ELONA; conditions: normalized ELISA score
# [29] = tested on: ZFP7263 linker TPRPPIPKP (artificial)
# [30] = tested on: ZFP7263 linker TPNRCPPTKP (artificial)
# [31] = tested on: ZFP7263 linker LRQKDERP (artificial)
# [32] = tested on: ZFP7263 (host, center linker TGSQKP) (artificial)
# [33] = tested on: ZFP7263 linker TGEGGKP (artificial)
# [34] = tested on: ZFP7263 linker TQRPQIPPKP (artificial)
# [35] = tested on: ZFP7263 linker TYPRPLLAKP (artificial)
# [36] = tested on: ZFP7263 linker TGGGGSQKP (artificial)
# [37] = tested on: ZFP7263 linker TPLCQRPMKQKP (artificial)
# [38] = tested on: ZFP7264 linker TGEGGKP (artificial)
# [39] = tested on: ZFP7264 linker TLPLPRPKP (artificial)
# [40] = tested on: ZFP7264 linker TSRPRPKP (artificial)
# [41] = tested on: ZFP7264 (host, center linker TGSQKP) (artificial)
# [42] = tested on: ZFP7264 linker LRQKDERP (artificial)
# [43] = tested on: ZFP7264 linker TKHGTPKHREDKP (artificial)
# [44] = tested on: ZFP7264 linker TGLPKPKP (artificial)
# [45] = tested on: ZFP7264 linker 1e (artificial)
# [46] = tested on: ZFP7264 linker TGGGGSQKP (artificial)
# [47] = tested on: ZFP7264 linker TLPPCFRPKP (artificial)
# [48] = tested on: ZFP7264 linker TLPPCFRPKP center linker F2-F3 TGSQKP replaced by TLPPCFRPKP (artificial); test: ELONA; conditions: normalized ELISA score
# [49] = tested on: ZFP7264 linker TGLPKPKP center linker F2-F3 TGSQKP replaced by TGLPKPKP (artificial); test: ELONA; conditions: normalized ELISA score
# [50] = tested on: ZFP7264 linker TGGGGSQKP center linker F2-F3 TGSQKP replaced by TGGGGSQKP (artificial); test: ELONA; conditions: normalized ELISA score
# [51] = tested on: ZFP7264 (host, center linker TGSQKP) (artificial); test: ELONA
# [52] = tested on: ZFP7264 linker TGEGGKP center linker F2-F3 TGSQKP replaced by TGEGGKP (artificial); test: ELONA; conditions: normalized ELISA score
# [53] = tested on: ZFP7264 linker 1e center linker F2-F3 TGSQKP replaced by TVPRPTPPKP (artificial); test: ELONA; conditions: normalized ELISA score
# [54] = tested on: ZFP7264 linker TSRPRPKP center linker F2-F3 TGSQKP replaced by TSRPRPKP (artificial); test: ELONA; conditions: normalized ELISA score
# [55] = tested on: ZFP7264 linker TKHGTPKHREDKP center linker F2-F3 TGSQKP replaced by TKHGTPKHREDKP (artificial); test: ELONA; conditions: normalized ELISA score
# [56] = tested on: ZFP7264 linker TLPLPRPKP center linker F2-F3 TGSQKP replaced by TLPLPRPKP (artificial); test: ELONA; conditions: normalized ELISA score
# [57] = tested on: ZFP7264 linker LRQKDERP center linker F2-F3 TGSQKP replaced by LRQKDERP (artificial); test: ELONA; conditions: normalized ELISA score
# [58] = ELISA normalized to host on 0-bp gap target (reference)
# [59] = normalized ELISA score averaged over 16 2-bp gaps
sequence,measurement,setting,value
TTAGATAAACTGCAAAAGGCTATC (double strand) [8196 target 0-bp gap],binding signal,[1],0.01
same,binding signal,[2],0.001
same,binding signal,[3],0.01
same,binding signal,[4]; normalized ELISA score,0.005
same,binding signal,[5],0.01
same,binding signal,[6],0.01
same,binding signal,[7],0.01
same,binding signal,[8]; normalized ELISA score,0.019
same,binding signal,[9]; normalized ELISA score,0.003
same,binding signal,[10]; [58],1
same,binding signal,[11],0.02
same,binding signal,[12],0.01
same,binding signal,[13],0.01
same,binding signal,[14],0.001
same,binding signal,[15],0.001
same,binding signal,[16],0
same,binding signal,[17],0.04
same,binding signal,[18],0.01
same,binding signal,[19],0.01
same,binding signal,[20]; normalized ELISA score,0.01
same,binding signal,[21],0
same,binding signal,[22],0
same,binding signal,[23],0.02
same,binding signal,[24],0
same,binding signal,[25],0.01
same,binding signal,[26],0.001
same,binding signal,[27]; normalized ELISA score,0.005
same,binding signal,[28],0.1
"TTAGATAAACTGNNCAAAAGGCTATC (double strand) [8196 targets 2-bp gap, all 16 compositions]",binding signal,[2]; pool of 16 2-bp gaps,0.57
same,binding signal,[4]; [59],0.1
same,binding signal,[8]; [59],0.01
same,binding signal,[9]; [59],0.219
same,binding signal,[14]; pool of 16 2-bp gaps,0.41
same,binding signal,[15]; pool of 16 2-bp gaps,0.31
same,binding signal,[18]; pool of 16 2-bp gaps,0.37
same,binding signal,[20]; [59],0.003
same,binding signal,[25]; pool of 16 2-bp gaps,0.57
same,binding signal,[26]; pool of 16 2-bp gaps,0.61
same,binding signal,[27]; [59],0.127
TTAGATAAACTGTCAAAAGGCTATC (double strand) [8196 target gap T],binding signal,[1],0.55
same,binding signal,[3],0.81
same,binding signal,[5],0.93
same,binding signal,[6],0.19
same,binding signal,[7],0.47
same,binding signal,[10]; normalized ELISA score,0.01
same,binding signal,[11],0.8
same,binding signal,[12],0.25
same,binding signal,[13],0.08
same,binding signal,[16],0
same,binding signal,[17],0.81
same,binding signal,[19],0.64
same,binding signal,[21],0.62
same,binding signal,[22],0.52
same,binding signal,[23],0.95
same,binding signal,[24],0.6
same,binding signal,[28],0.03
TTAGCCACTCTGATTGGAAGTGTATC (double strand) [7263 target gap AT],binding signal (normalized ELISA),[29],0.01
same,binding signal (normalized ELISA),[30],0.02
same,binding signal (normalized ELISA),[31],0.01
same,binding signal (normalized ELISA),[32],0.01
same,binding signal (normalized ELISA),[33],0.01
same,binding signal (normalized ELISA),[34],0.02
same,binding signal (normalized ELISA),[35],0.01
same,binding signal (normalized ELISA),[36],0.01
same,binding signal (normalized ELISA),[37],0.05
TTAGCCACTCTGCTTGGAAGTGTATC (double strand) [7263 target gap CT],binding signal (normalized ELISA),[29],0.01
same,binding signal (normalized ELISA),[30],0.01
same,binding signal (normalized ELISA),[31],0.01
same,binding signal (normalized ELISA),[32],0
same,binding signal (normalized ELISA),[33],0.01
same,binding signal (normalized ELISA),[34],0.01
same,binding signal (normalized ELISA),[35],0.01
same,binding signal (normalized ELISA),[36],0.02
same,binding signal (normalized ELISA),[37],0.02
TTAGTTAAAGCGCTGCTCCGAATATC (double strand) [7264 target gap CT],binding signal (normalized ELISA),[38],0.03
same,binding signal (normalized ELISA),[39],0.03
same,binding signal (normalized ELISA),[40],0.03
same,binding signal (normalized ELISA),[41],0
same,binding signal (normalized ELISA),[42],0.02
same,binding signal (normalized ELISA),[43],0
same,binding signal (normalized ELISA),[44],0.02
same,binding signal (normalized ELISA),[45],0.06
same,binding signal (normalized ELISA),[46],0.07
same,binding signal (normalized ELISA),[47],0.05
TTAGTTAAAGCGGCTCCGAATATC (double strand) [7264 target 0-bp gap],binding signal,[48],0.36
same,binding signal,[49],0.14
same,binding signal,[50],0.46
same,binding signal,[51]; [58],1
same,binding signal,[52],1.39
same,binding signal,[53],0.16
same,binding signal,[54],0.18
same,binding signal,[55],0.01
same,binding signal,[56],0.25
same,binding signal,[57],0.26
TTAGTTAAAGCGTGCTCCGAATATC (double strand) [7264 target gap T],binding signal,[48],2.72
same,binding signal,[49],0.86
same,binding signal,[50],0.17
same,binding signal,[51]; normalized ELISA score,0
same,binding signal,[52],0.08
same,binding signal,[53],2.55
same,binding signal,[54],2.07
same,binding signal,[55],0.01
same,binding signal,[56],1.36
same,binding signal,[57],0.1
